For series [1], the system named is propionyl-CoA synthetase (Pcs).
Substrate in series [2]: CC(C)(COP(=O)(O)OP(=O)(O)OC[C@H]1O[C@@H](n2cnc3c(N)ncnc32)[C@H](O)[C@@H]1OP(=O)(O)O)[C@@H](O)C(=O)NCCC(=O)NCCSC(=O)CCC(=O)O
As to the kind of experiment: purified protein.

Substrate in series [3]: O=CCC(=O)O
Put plainly: malonic semialdehyde made by McrC. It is filed as biochemical, Escherichia coli. The settings on record: L-glutamate co-substrate, NH4Cl.

Substrate in series [4]: N[C@@H](CCC(=O)O)C(=O)O
Put plainly: malonic semialdehyde made by McrC. The settings on record: malonic semialdehyde co-substrate, NH4Cl. It is filed as biochemical, Escherichia coli.

Substrate in series [5]: CC(C)(COP(=O)(O)OP(=O)(O)OC[C@H]1O[C@@H](n2cnc3c(N)ncnc32)[C@H](O)[C@@H]1OP(=O)(O)O)[C@@H](O)C(=O)NCCC(=O)NCCSC(=O)CC(=O)O
As to the kind of experiment: purified protein. The settings on record: NADPH co-substrate; full-length Mcr assumed (McrC also made).

Substrate in series [6]: O=C(O)C[C@H](O)C(=O)O
As to the kind of experiment: purified protein. The conditions noted are these: succinyl-CoA co-substrate.

Substrate in series [7]: C=CC(=O)SCCNC(=O)CCNC(=O)[C@H](O)C(C)(C)COP(=O)(O)OP(=O)(O)OC[C@H]1O[C@@H](n2cnc3c(N)ncnc32)[C@H](O)[C@@H]1OP(=O)(O)O
Put plainly: purified protein. The settings on record: NADPH co-substrate.

Substrate in series [8]: NC(=O)C1=CN([C@@H]2O[C@H](COP(=O)(O)OP(=O)(O)OC[C@H]3O[C@@H](n4cnc5c(N)ncnc54)[C@H](OP(=O)(O)O)[C@@H]3O)[C@@H](O)[C@H]2O)C=CC1
As to the kind of experiment: purified protein. The conditions noted are these: acrylyl-CoA co-substrate; varied: cofactor.

Substrate in series [9]: CC(C)(COP(=O)(O)OP(=O)(O)OC[C@H]1O[C@@H](n2cnc3c(N)ncnc32)[C@H](O)[C@@H]1OP(=O)(O)O)[C@@H](O)C(=O)NCCC(=O)NCCSC(=O)CCN
As to the kind of experiment: purified protein. The conditions noted are these: NADPH, NaHCO3, excess Ccr.

Substrate in series [10]: CC(C)(COP(=O)(O)OP(=O)(O)OC[C@H]1O[C@@H](n2cnc3c(N)ncnc32)[C@H](O)[C@@H]1OP(=O)(O)O)[C@@H](O)C(=O)NCCC(=O)NCCSC(=O)/C=C/C(=O)O
As to the kind of experiment: purified protein.

The record followed here is paper PMC10266731 (Science Advances, 2023).

Like-named read-outs stand apart in the source and are kept apart here.

One may read the Km as the substrate concentration at which the rate is half of its maximum.

For the molecule `O=C(O)CCO` [3-hydroxypropionate], the Km in [1] (read-out: app. Km, ATP, NADPH co-substrates) worked out at 85 µM.
With `Nc1ncnc2c1ncn2[C@@H]1O[C@H](COP(=O)(O)OP(=O)(O)OP(=O)(O)O)[C@@H](O)[C@H]1O` [ATP], the Km in [1] (read-out: app. Km, 3-hydroxypropionate, NADPH co-substrates) was 10 µM.

B1: (2S)-methylsuccinyl-CoA dehydrogenase (PmMcd) (Pseudomonas migulae) (protein)
chain: MLPITAADDVQGLLLQLRGLLEQAISALASRCTKGRQLDAELLDLMQVPTFELAWASAELLAAERSLQAIDAGTSSVDRRLILVFAVEAITLVHSRLEAIYAELDLADGTLHAIAADQKLRALRRSVLSSTALHDSARLMVERPEQIGQVAMGDELSMIEDQFRRFAADTVAPLAEHIHREDLIIPDSLLAALRDMGVFGLSIPERYGGSAPDDQEDPLTMIVVTEALSQASLAAAGSLITRPEILSRALLSGGTESQKQHWLARLAVGDPLCAIAITEPDYGSDVAGLTLRGTPCEGGWRLNGAKTWCTFAGKAGVLMVVTRTNPDKSLGHRGLSLLLAEKPSYDGHEFDFRQPGGGSLTGRAIPTIGYRGMHSFDLSFEDFFVPDGNVIGEAQGLGKGFYHTMAGMTGGRMQTAGRASGVMRAALLAGLRYATERKVFGSPLLDYPLTGAKLTKMAARYVASRYLTYSVGRMLAQGEGRMEASLVKLFACRSAELVTRESLQIHGGMGYAEEVAVSRYFVDARVLSIFEGAEETLALKVIGRSLLEAALKAEAA
As to B1, the Michaelis-Menten constant (Km) in the series “purified protein [2]” (ferrocenium electron acceptor) turned out to be 78 µM.

B2: 4-aminobutyrate-2-oxoglutarate transaminase (GabT) (Escherichia coli K-12) (protein)
chain: MNSNKELMQRRSQAIPRGVGQIHPIFADRAENCRVWDVEGREYLDFAGGIAVLNTGHLHPKVVAAVEAQLKKLSHTCFQVLAYEPYLELCEIMNQKVPGDFAKKTLLVTTGSEAVENAVKIARAATKRSGTIAFSGAYHGRTHYTLALTGKVNPYSAGMGLMPGHVYRALYPCPLHGISEDDAIASIHRIFKNDAAPEDIAAIVIEPVQGEGGFYASSPAFMQRLRALCDEHGIMLIADEVQSGAGRTGTLFAMEQMGVAPDLTTFAKSIAGGFPLAGVTGRAEVMDAVAPGGLGGTYAGNPIACVAALEVLKVFEQENLLQKANDLGQKLKDGLLAIAEKHPEIGDVRGLGAMIAIELFEDGDHNKPDAKLTAEIVARARDKGLILLSCGPYYNVLRILVPLTIEDAQIRQGLEIISQCFDEAKQ
Regarding B2, the values for the Km in series [3] and in [4] were 98 µM and 7 µM, respectively.

B3: Malonyl-CoA reductase (Mcr) (Chloroflexus aurantiacus J-10-fl) (protein)
chain: MSGTGRLAGKIALITGGAGNIGSELTRRFLAEGATVIISGRNRAKLTALAERMQAEAGVPAKRIDLEVMDGSDPVAVRAGIEAIVARHGQIDILVNNAGSAGAQRRLAEIPLTEAELGPGAEETLHASIANLLGMGWHLMRIAAPHMPVGSAVINVSTIFSRAEYYGRIPYVTPKAALNALSQLAARELGARGIRVNTIFPGPIESDRIRTVFQRMDQLKGRPEGDTAHHFLNTMRLCRANDQGALERRFPSVGDVADAAVFLASAESAALSGETIEVTHGMELPACSETSLLARTDLRTIDASGRTTLICAGDQIEEVMALTGMLRTCGSEVIIGFRSAAALAQFEQAVNESRRLAGADFTPPIALPLDPRDPATIDAVFDWAGENTGGIHAAVILPATSHEPAPCVIEVDDERVLNFLADEITGTIVIASRLARYWQSQRLTPGARARGPRVIFLSNGADQNGNVYGRIQSAAIGQLIRVWRHEAELDYQRASAAGDHVLPPVWANQIVRFANRSLEGLEFACAWTAQLLHSQRHINEITLNIPANISATTGARSASVGWAESLIGLHLGKVALITGGSAGIGGQIGRLLALSGARVMLAARDRHKLEQMQAMIQSELAEVGYTDVEDRVHIAPGCDVSSEAQLADLVERTLSAFGTVDYLINNAGIAGVEEMVIDMPVEGWRHTLFANLISNYSLMRKLAPLMKKQGSGYILNVSSYFGGEKDAAIPYPNRADYAVSKAGQRAMAEVFARFLGPEIQINAIAPGPVEGDRLRGTGERPGLFARRARLILENKRLNELHAALIAAARTDERSMHELVELLLPNDVAALEQNPAAPTALRELARRFRSEGDPAASSSSALLNRSIAAKLLARLHNGGYVLPADIFANLPNPPDPFFTRAQIDREARKVRDGIMGMLYLQRMPTEFDVAMATVYYLADRNVSGETFHPSGGLRYERTPTGGELFGLPSPERLAELVGSTVYLIGEHLTEHLNLLARAYLERYGARQVVMIVETETGAETMRRLLHDHVEAGRLMTIVAGDQIEAAIDQAITRYGRPGPVVCTPFRPLPTVPLVGRKDSDWSTVLSEAEFAELCEHQLTHHFRVARKIALSDGASLALVTPETTATSTTEQFALANFIKTTLHAFTATIGVESERTAQRILINQVDLTRRARAEEPRDPHERQQELERFIEAVLLVTAPLPPEADTRYAGRIHRGRAITV
In the case of B3, the Km in “purified protein [5]” turned out to be 1.3 µM.

B4: succinyl-CoA:L-malate CoA transferase (Smt) (Chloroflexus aurantiacus) (protein)
chain 1: MPPTGEEPSGHAESKPPASDPMSTPGTGQEQLPLSGIRVIDVGNFLAGPYAASILGEFGAEVLKIEHPLGGDPMRRFGTATARHDATLAWLSEARNRKSVTIDLRQQEGVALFLKLVAKSDILIENFRPGTMEEWGLSWPVLQATNPGLIMLRVSGYGQTGPYRRRSGFAHIAHAFSGLSYLAGFPGETPVLPGTAPLGDYIASLFGAIGILIALRHKEQTGRGQLIDVGIYEAVFRILDEIAPAYGLFGKIREREGAGSFIAVPHGHFRSKDGKWVAIACTTDKMFERLAEAMERPELASPELYGDQRKRLAARDIVNQITIEWVGSLTRDEVMRRCLEKEVPVGPLNSIADMFNDEHFLARGNFACIEAEGIGEVVVPNVIPRLSETPGRVTNLGPPLGNATYEVLRELLDISAEEIKRLRSRKII
chain 2: MDGTTTTLPLAGIRVIDAATVIAAPFCATLLGEFGADVLKVEHPIGGDALRRFGTPTARGDTLTWLSESRNKRSVTLNLQHPEGARVFKELIAHSDVLCENFRPGTLEKWGLGWDVLSKINPRLIMLRVTGYGQTGPYRDRPGFARIAHAVGGIAYLAGMPKGTPVTPGSTTLADYMTGLYGCIGVLLALRHREQTGRGQYIDAALYESVFRCSDELVPAYGMYRKVRERHGSHYNEFACPHGHFQTKDGKWVAISCATDKLFARLANAMGRPELASSSVYGDQKVRLAHASDVNEIVRDWCSSLTRAEVLERCYATATPAAPLNDIADFFGDRHVHARRNLVAIDAEDLGETLIMPNVVPKLSETPGSIRSLGPKLGEHTEEVLKEILGMCDEQINDLRSKRVI
For the molecule B4, the values for the Km in “purified protein [2]” (malate co-substrate) and in “purified protein [6]” were 960 µM and 910 µM, respectively.

B5: Ccr (Methylorubrum extorquens AM1) (protein)
chain: MAASAAPAWTGQTAEAKDLYELGEIPPLGHVPAKMYAWAIRRERHGPPEQSHQLEVLPVWEIGDDEVLVYVMAAGVNYNGVWAGLGEPISPFDVHKGEYHIAGSDASGIVWKVGAKVKRWKVGDEVIVHCNQDDGDDEECNGGDPMFSPTQRIWGYETGDGSFAQFCRVQSRQLMARPKHLTWEEAACYTLTLATAYRMLFGHAPHTVRPGQNVLIWGASGGLGVFGVQLCAASGANAIAVISDESKRDYVMSLGAKGVINRKDFDCWGQLPTVNSPEYNTWLKEARKFGKAIWDITGKGNDVDIVFEHPGEATFPVSTLVAKRGGMIVFCAGTTGFNITFDARYVWMRQKRIQGSHFAHLKQASAANQFVMDRRVDPCMSEVFPWDKIPAAHTKMWKNQHPPGNMAVLVNSTRAGLRTVEDVIEAGPLKAM
Turning to B5, the Km in the series “purified protein [7]” worked out at 780 µM; in “purified protein [8]”, 210 µM.

B6: β-alanyl-CoA:ammonia lyase (βCal) (Allostigmatella aurantiaca DW4/3-1) (protein)
chain: MSTKAIIRLRMSSHDAHYGGNLVDGARMLGLFGDVATELCIRHDGDEGLFRAYDSVEFLAPVYAGDFIEAEGEILSEGNTSRKMRFEARKVIRPRTDVNDSAADLLSEPVVVCRATGTCVVPKDKQRIPR
As to B6, in “purified protein [9]”, the Km came out at 70 µM.

B7: mesaconyl-CoA hydratase (Mch) (Cereibacter sphaeroides 2.4.1) (protein)
chain: MKTNAGRFFEDYRLGETIAHAVPRTVSGGERALYHALYPARHALSSSDEFARACGLPAAPVDELMAFHLVFGKTVPDISLNAVANLGYAEGRWLKPVFPGDTLRAESTVIGLKENSNGASGVVWVRTRGLNQQGEAVLSYVRWVMVRKRDTAAPAPAPTVPELAGSVAASDLVIPEGLSFTDYDLTLAGEPHRWGDYAVGEKIDHVDGVTVEESEHMLATRLWQNTAKVHFDATNRPDGRRLIYGGHVISLARTLSFNGLANAQMIVALNAGAHANPCFAGDTVRAWSEVLDKAETADPGVGALRLRLVAMKHGTEPFVTRSEDGKYLPGVLLDLDYWALVPR
In the case of B7, the Km in “purified protein [10]” came to 280 µM.
